This note sets out measurements from US20030129163A1.

This assay has as its target KDR/Flk-1 antibody. The assay is described as follows: cell-based or functional assay.

On to “wild-type CAE virions (Wild Type CAE env, amphotropic)”, for which the # Blue Colonies (X-gal) on 1 x 10^5 KSY1 cells/well contacted with 5000 ng KDR/Flk-1 Ab, MOI = 10 (blue colonies) turned out to be 20 and the # Blue Colonies (X-gal) on 5 x 10^5 KSY1 cells/well contacted with 5000 ng KDR/Flk-1 Ab, MOI = 4 (blue colonies) came out at 66.
In turn, “PABN.CAE retroviral vector (Protein A at BstEII and Ngo + Wild Type CAE env) (from UniProt P38507 212-269)” displayed a # Blue Colonies (X-gal) on 1 x 10^5 KSY1 cells/well contacted with 1000 ng KDR/Flk-1 Ab, MOI = 10 (blue colonies) of 1560 and a # Blue Colonies (X-gal) on 1 x 10^5 KSY1 cells/well contacted with 5000 ng KDR/Flk-1 Ab, MOI = 10 (blue colonies) of 2550.
Consider “PABA.CAE retroviral vector (Protein A at BstEII and Avr + Wild Type CAE env) (from UniProt P38507 212-269)”, for which the # Blue Colonies (X-gal) on 5 x 10^5 KSY1 cells/well contacted with 1000 ng KDR/Flk-1 Ab, MOI = 4 (blue colonies) stood at 648 and the # Blue Colonies (X-gal) on 5 x 10^5 KSY1 cells/well contacted with 5000 ng KDR/Flk-1 Ab, MOI = 4 (blue colonies) worked out at 946.
